Results on 17 molecules are retold here after patent US20220064329A1 (Novo Nordisk, published 2022).

Changes are numbered by the printed parent chain. Names may count otherwise.

Sequences and labels used below:
B1: VH SEQ ID NO 610 / VL SEQ ID NO 358 (antibody, IgG4, V domains shown)
VH: QVQLQESGPGLVKPSQTLSLTCTVSGGSITSDSAWSWIRQPPGKGLEWIGYIQYSGSTNYNPSLKSRVTISVDTSKNQFSLKLSSVTAADTAVYYCARSVNYYGNSFAVGYWGQGTLVTVSS
VL: EIVLTQSPATLSLSPGERATLSCRASQGISDYLHWYQQKPGQAPRLLIKYTSQPATGIPARFSGSGSGTDFTLTISSLEPEDFAVYYCQNGHSFPLTFGQGTKLEIK
notes: humanized 11F2; IgG4 S228P/kappa
B2: VH SEQ ID NO 610 / VL SEQ ID NO 430 (antibody, IgG4, V domains shown)
VH: B1 VH
VL: B1 VL with I29V, H34A, T51A, A84G
notes: as for B1
B3: VH SEQ ID NO 610 / VL SEQ ID NO 454 (antibody, IgG4, V domains shown)
VH: B1 VH
VL: B1 VL with I29V, Q42E, T51A
notes: as for B1
B4: VH SEQ ID NO 610 / VL SEQ ID NO 462 (antibody, IgG4, V domains shown)
VH: B1 VH
VL: B1 VL with I29V, T51A, Q100A
notes: as for B1
B5: VH SEQ ID NO 610 / VL SEQ ID NO 390 (antibody, IgG4, V domains shown)
VH: B1 VH
VL: B1 VL with I29V, H34A, Q42E, T51A
notes: as for B1
B6: VH SEQ ID NO 610 / VL SEQ ID NO 366 (antibody, IgG4, V domains shown)
VH: B1 VH
VL: B1 VL with I29L, H34A, Q42E, T51A
notes: as for B1
B7: VH SEQ ID NO 610 / VL SEQ ID NO 382 (antibody, IgG4, V domains shown)
VH: B1 VH
VL: B1 VL with I29L, Q42E, T51A
notes: as for B1
B8: VH SEQ ID NO 610 / VL SEQ ID NO 406 (antibody, IgG4, V domains shown)
VH: B1 VH
VL: B1 VL with I29V, H34A, T51A, Q100A
notes: as for B1
B9: VH SEQ ID NO 610 / VL SEQ ID NO 446 (antibody, IgG4, V domains shown)
VH: B1 VH
VL: B1 VL with I29V, H34A
notes: as for B1
B10: VH SEQ ID NO 610 / VL SEQ ID NO 478 (antibody, IgG4, V domains shown)
VH: B1 VH
VL: B1 VL with I29V, T51A, N90Q
notes: as for B1
B11: VH SEQ ID NO 610 / VL SEQ ID NO 414 (antibody, IgG4, V domains shown)
VH: B1 VH
VL: B1 VL with I29V, H34A, T51A
notes: as for B1
B12: VH SEQ ID NO 610 / VL SEQ ID NO 486 (antibody, IgG4, V domains shown)
VH: B1 VH
VL: B1 VL with I29V, T51A, A84G
notes: as for B1
B13: VH SEQ ID NO 618 / VL SEQ ID NO 310 (antibody, IgG4, V domains shown)
VH: B1 VH with G27Y, T30S, P41F, V72R, Y111P
VL: B1 VL with H34A, T51A
notes: as for B1
B14: VH SEQ ID NO 610 / VL SEQ ID NO 470 (antibody, IgG4, V domains shown)
VH: B1 VH
VL: B1 VL with I29V, T51A
notes: as for B1
B15: VH SEQ ID NO 610 / VL SEQ ID NO 438 (antibody, IgG4, V domains shown)
VH: B1 VH
VL: B1 VL with I29V, H34A, T51A, F83V
notes: as for B1
B16: VH SEQ ID NO 610 / VL SEQ ID NO 502 (antibody, IgG4, V domains shown)
VH: B1 VH
VL: B1 VL with I29V
notes: as for B1
B17: VH SEQ ID NO 610 / VL SEQ ID NO 494 (antibody, IgG4, V domains shown)
VH: B1 VH
VL: B1 VL with I29V, T51A, F83V
notes: as for B1

This assay deals with T1, recombinant human activated Factor VII (FVIIa) (human, UniProt P08709 61-212; P08709 213-466, ten glutamate residues of the Gla domain may be gamma-carboxylated).
T1 construct: chains tethered by a disulfide bond; also called Factor VIIa; rFVIIa
T1 sequence 1: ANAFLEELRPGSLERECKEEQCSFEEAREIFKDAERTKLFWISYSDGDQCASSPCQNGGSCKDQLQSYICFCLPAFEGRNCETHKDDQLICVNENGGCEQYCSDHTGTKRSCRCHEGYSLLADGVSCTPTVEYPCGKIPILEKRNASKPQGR
T1 sequence 2: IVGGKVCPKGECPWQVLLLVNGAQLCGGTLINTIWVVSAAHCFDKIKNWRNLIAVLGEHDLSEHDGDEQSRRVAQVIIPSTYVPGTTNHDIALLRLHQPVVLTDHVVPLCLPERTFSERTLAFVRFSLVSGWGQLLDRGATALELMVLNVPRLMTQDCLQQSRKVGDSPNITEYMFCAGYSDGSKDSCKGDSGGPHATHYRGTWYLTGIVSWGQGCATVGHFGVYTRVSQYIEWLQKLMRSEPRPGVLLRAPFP
Briefly: BLI (Fortebio).
By Kd is commonly meant the constant that tells how readily two partners part at equilibrium. B1: the Kd was 11 nM. Regarding B2, the Kd is 1500 nM.

As for B3, the Kd was 16 nM. As for B4, the figure is 17 nM; as for B5, 380 nM. As for B6, the figure is 330 nM.

Take B7: the Kd stood at 17 nM. As for B8, the figure is 480 nM; as for B9, 49 nM; as for B10, 33 nM. As for B11, the figure is 780 nM; as for B12, 17 nM; as for B13, 12 nM. The result for B14 reads 16 nM. For the molecule B15, the Kd was 620 nM. As for B16, the figure is 17 nM; as for B17, 17 nM.
